Measured values from IntAct's records for PubMed 17431395.

Biological target: T1, goga2_human GOLGA2 (UniProt Q08379)
T1 sequence: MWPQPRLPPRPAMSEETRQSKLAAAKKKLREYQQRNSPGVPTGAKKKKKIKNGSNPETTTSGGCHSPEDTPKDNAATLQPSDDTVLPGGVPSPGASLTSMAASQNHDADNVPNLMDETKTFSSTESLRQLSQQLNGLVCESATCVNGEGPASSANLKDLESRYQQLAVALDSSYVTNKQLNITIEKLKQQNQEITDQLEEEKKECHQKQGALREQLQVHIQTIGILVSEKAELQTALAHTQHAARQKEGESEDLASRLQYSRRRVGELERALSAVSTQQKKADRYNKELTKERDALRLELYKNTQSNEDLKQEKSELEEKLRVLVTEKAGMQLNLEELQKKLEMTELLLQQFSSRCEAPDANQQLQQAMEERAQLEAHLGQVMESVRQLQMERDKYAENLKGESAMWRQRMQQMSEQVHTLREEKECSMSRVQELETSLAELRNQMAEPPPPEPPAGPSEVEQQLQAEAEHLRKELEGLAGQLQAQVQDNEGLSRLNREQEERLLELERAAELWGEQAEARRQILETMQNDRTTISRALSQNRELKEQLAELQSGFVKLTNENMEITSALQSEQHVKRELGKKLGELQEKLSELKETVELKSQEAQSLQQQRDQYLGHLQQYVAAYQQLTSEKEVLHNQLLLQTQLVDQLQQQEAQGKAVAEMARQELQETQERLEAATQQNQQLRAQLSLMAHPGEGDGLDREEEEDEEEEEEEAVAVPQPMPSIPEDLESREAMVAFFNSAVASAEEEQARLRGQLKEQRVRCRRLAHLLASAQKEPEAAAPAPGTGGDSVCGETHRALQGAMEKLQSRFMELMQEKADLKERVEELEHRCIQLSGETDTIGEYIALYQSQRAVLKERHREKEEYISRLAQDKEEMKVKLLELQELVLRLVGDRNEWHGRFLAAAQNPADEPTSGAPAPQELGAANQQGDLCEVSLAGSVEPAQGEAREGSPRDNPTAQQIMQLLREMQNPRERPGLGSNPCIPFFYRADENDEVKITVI

## Transthyretin (Homo sapiens) (from UniProt P02766) D38E
  effect of a mutation on the interaction: disrupting interaction
